# B1: ER-2b (antibody, part only; not given: Constant region, common trastuzumab light chain, part only)
# heavy chain, part: EVQLVESGGGLVQPGGSLRLSCAASGFNIYYAAMHWVRQAPGKGLEWVAFISPYYSYTSYADSVKGRFTISADTSKNTAYLQMNSLRAEDTAVYYCARYFHSSWYESSSPRAYYPGMDYWGQGTLVTVSS
# Molecular target: human EGFR (protein used in SPR, ELISA and BLI) (human) (UniProt P00533)
# Test: SPR
binder,measurement,value
B1,koff,5e-05 s⁻¹
same,kon,280000 M⁻¹ s⁻¹
